Assay results from article PMC6309870.

T1: HA-CEBPD (C/EBP delta, NF-IL6beta) (UniProt P49716 1-269)
T1 sequence: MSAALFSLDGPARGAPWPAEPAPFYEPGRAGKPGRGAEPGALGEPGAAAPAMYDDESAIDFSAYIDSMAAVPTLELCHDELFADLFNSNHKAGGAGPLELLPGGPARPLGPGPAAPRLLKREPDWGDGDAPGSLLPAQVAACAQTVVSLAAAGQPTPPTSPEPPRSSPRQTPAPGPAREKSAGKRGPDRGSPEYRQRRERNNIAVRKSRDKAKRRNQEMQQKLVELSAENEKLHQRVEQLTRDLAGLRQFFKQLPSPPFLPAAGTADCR

B1: PTX3 promoter site 1 (dsDNA)
DNA 1: TTTAATATTGTGCAACTTCCAC
DNA 2: GTGGAAGTTGCACAATATTAAA
B2: PTX3 promoter site 5 (dsDNA)
DNA 1: TAAAGGGTTGTGAAATAATAAC
DNA 2: GTTATTATTTCACAACCCTTTA

Molecular target: T1, HA-CEBPD (C/EBP delta, NF-IL6beta)
Assay: EMSA, supershift

Binder	binding result
B1	binds
B2	binds
